Test results as given in US20170334985A1 (Genentech, published 2017).
Residue numbers refer to the chain shown, from its start.

T1: human IL-17AF heterodimer (human, UniProt Q16552 24-155; Q96PD4 31-163, limits assumed)
T1 sequence 1: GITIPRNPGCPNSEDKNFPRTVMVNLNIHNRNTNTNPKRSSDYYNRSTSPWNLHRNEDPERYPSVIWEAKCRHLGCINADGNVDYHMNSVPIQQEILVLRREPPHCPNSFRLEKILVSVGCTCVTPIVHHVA
T1 sequence 2: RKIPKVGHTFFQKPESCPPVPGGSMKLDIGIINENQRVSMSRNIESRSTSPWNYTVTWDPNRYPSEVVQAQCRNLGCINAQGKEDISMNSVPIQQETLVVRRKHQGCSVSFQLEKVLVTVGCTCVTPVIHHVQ

T2: human IL-17FF (human, UniProt Q96PD4 31-163)
T2 sequence: T1 sequence 2

T3: cynomolgus monkey IL-13 (cynomolgus monkey, UniProt Q5I6E4 19-132 (Macaca thibetana entry), limits assumed)
T3 construct: also called cyno IL-13
T3 chain: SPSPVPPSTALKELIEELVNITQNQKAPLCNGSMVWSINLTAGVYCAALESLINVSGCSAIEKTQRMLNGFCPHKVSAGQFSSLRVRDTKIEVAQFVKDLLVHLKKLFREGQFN

T4: human IL-17AA (human, UniProt Q16552 20-155, limits assumed)
T4 construct: Bought from R&D Systems, cat #317-ILB-050; also called IL-17A homodimer
T4 sequence: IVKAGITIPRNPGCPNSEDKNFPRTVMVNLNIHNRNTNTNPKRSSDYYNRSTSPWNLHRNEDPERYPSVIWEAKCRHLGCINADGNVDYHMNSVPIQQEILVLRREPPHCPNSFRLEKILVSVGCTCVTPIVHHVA

T5: cyno IL-17AA (cynomolgus monkey, UniProt A0A2K5TTB0 24-155)
T5 construct: Recombinant protein in the SPR assay; also called cynomolgus monkey IL-17AA; IL-17A homodimer (cynomolgus monkey)
T5 sequence: T1 sequence 1 with T3A, P8S, N34S, I77V, N78K, P104R

B1: Parental anti-IL17 antibody (antibody, V domains shown)
VH: EVQLVESGGGLVQPGRSLRLSCAASGFTFDDYAMHWVRQAPGKGLEWVSGINWSSGGIGYADSVKGRFTISRDNAKNSLYLQMNSLRAEDTALYYCARDIGGFGEFYWNFGLWGRGTLVTVSS
VL: not shown
B2: anti-IL-13/IL-17 bispecific antibody (bispecific antibody, human IgG4 S228P)
heavy 1: not shown
VL 1: DIVLTQSPDSLSVSLGERATINCRASKSVDSYGNSFMHWYQQKPGQPPKLLIYLASNLESGVPDRFSGSGSGTDFTLTISSLQAEDVAVYYCQQNNEDPRTFGGGTKVEIKR
heavy 2: EVQLVESGGGLVQPGRSLRLSCAASGFTFDDYAMHWVRQAPGKGLEWVSGINWSSGGIGYADSVKGRFTISRDNAKNSLYLQMNSLRAEDTALYYCARDIGGFGEFYWNFGLWGRGTLVTVSSASTKGPSVFPLAPCSRSTSESTAALGCLVKDYFPEPVTVSWNSGALTSGVHTFPAVLQSSGLYSLSSVVTVPSSSLGTKTYTCNVDHKPSNTKVDKRVESKYGPPCPPCPAPEFLGGPSVFLFPPKPKDTLMISRTPEVTCVVVDVSQEDPEVQFNWYVDGVEVHNAKTKPREEQFNSTYRVVSVLTVLHQDWLNGKEYKCKVSNKGLPSSIEKTISKAKGQPREPQVYTLPPSQEEMTKNQVSLSCAVKGFYPSDIAVEWESNGQPENNYKTTPPVLDSDGSFFLVSRLTVDKSRWQEGNVFSCSVMHEALHNHYTQKSLSLSLGK
VL 2: not shown
notes: Knobs-into-holes human IgG4; also called anti-IL-17/anti-IL-13 bispecific antibody; anti-IL-13/IL-17 IgG4 bispecific antibody

Experiments:
[1] = target: T1, human IL-17AF heterodimer; assay: cell-based or functional assay
[2] = target: T2, human IL-17FF; assay: cell-based or functional assay
[3] = target: T6, human IL-13 (human, UniProt P35225 35-146, limits assumed); assay: SPR (BIAcore T200), antibody captured by anti-human Fc on CM5 chip, cytokine injected, 25 C, 1:1 Langmuir model
T6 construct: also called recombinant human IL-13
T6 sequence (P35225 other isoform, or with tags, fused parts or gaps limits assumed): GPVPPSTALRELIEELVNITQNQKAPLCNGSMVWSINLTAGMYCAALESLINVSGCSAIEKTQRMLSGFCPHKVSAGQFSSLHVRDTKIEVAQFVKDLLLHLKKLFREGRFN
Method: (§1) Binding affinities of the anti-IL-17/anti-IL-13 bispecific antibody against human and cynomolgus monkey IL-13 cytokines were measured with a BIAcore™-T200 instrument. Anti-IL-13 antibody was captured by mouse anti-human Fc antibody (GE Healthcare, cat #BR-1008-39) coated on CM5 biosensor chips to achieve approximately 500 response units (RU). Four-fold serial dilutions (50 nM to 49 pM) of human IL-13, human IL-13R130Q (a common IL-13 variant associated with allergy and asthma, see Vladich et al., 2005, J. Clin Invest., 115:747-754), and cyno IL-13 were injected in FIBS-P buffer (GE Healthcare) at 25° C. with a flow rate of 30 μl/min. Association rates (kₒₙ) and dissociation rates (koff) were calculated using a simple one-to-one Langmuir binding model (BIAcore T200 Evaluation Software version 2.0). The equilibrium dissociation constant (KD) was calculated as the ratio koff/kₒₙ.

[4] = target: T7, human IL-13 R130Q (human, UniProt P35225 35-146, limits assumed); assay: as above
T7 construct: Common IL-13 variant
T7 sequence (P35225 35-146 limits assumed, stated change not applied): as the sequence (P35225 other isoform, or with tags, fused parts or gaps limits assumed) above, with R110Q counted along it
Method: as §1

[5] = target: T3, cynomolgus monkey IL-13; assay: as above
Method: as §1

[6] = target: T4, human IL-17AA; assay: SPR (BIAcore T200), bispecific antibody captured by anti-human Fc on CM5 chip, cytokine injected, 25 C, 1:1 Langmuir model
Method: (§2) Binding affinities of anti-IL-17/anti-IL-13 bispecific antibody against various IL-17 cytokines were measured by Surface Plasmon Resonance (SRP) using a BIAcore™-T200 instrument. Anti-IL-17/anti-IL-13 bispecific antibody was captured by mouse anti-human Fc antibody (GE Healthcare, cat #BR-1008-39) coated on CM5 biosensor chips to achieve approximately 500 response units (RU). For kinetics measurements, five-fold serial dilutions (20 nM to 32 pM) of human IL-17AA (R&D Systems, cat #317-ILB-050), human IL-17AF heterodimer, human IL-17FF (R&D Systems, cat #1335-IL-025/CF), cyno IL-17AA, cyno IL-17AF, and cyno IL-17FF were injected in HBS-P buffer (GE Healthcare) at 25° C. with a flow rate of 30 μl/min. Association rates (kₒₙ) and dissociation rates (koff) were calculated using a simple one-to-one Langmuir binding model (BlAcore T200 Evaluation Software version 2.0). The equilibrium dissociation constant (KD) was calculated as the ratio koff/kₒₙ.

[7] = target: T5, cyno IL-17AA; assay: as above
Method: as §2

| Binder | IC90 (molar ratio), inhibition of IL-17AF-induced G-CSF expression in normal human foreskin fibroblasts (ELISA) [1] [molar ratio] | IC90 (molar ratio), inhibition of IL-17FF-induced G-CSF expression in normal human foreskin fibroblasts (ELISA) [2] [molar ratio] | Kd [3] [nM] | koff [3] [s⁻¹] | kon [3] [M⁻¹ s⁻¹] | Kd [4] [nM] | koff [4] [s⁻¹] | kon [4] [M⁻¹ s⁻¹] | Kd [5] [nM] | koff [5] [s⁻¹] | kon [5] [M⁻¹ s⁻¹] | Kd [6] [nM] | koff [6] [s⁻¹] | kon [6] [M⁻¹ s⁻¹] | Kd [7] [nM] | koff [7] [s⁻¹] | kon [7] [M⁻¹ s⁻¹] |
| --- | --- | --- | --- | --- | --- | --- | --- | --- | --- | --- | --- | --- | --- | --- | --- | --- | --- |
| B1 | ~1 | ~1 |  |  |  |  |  |  |  |  |  |  |  |  |  |  |  |
| B2 |  |  | 0.0355 | 2.07e-05 | 584000 | < 0.001 | < 1e-06 | 864000 | < 0.001 | < 1e-06 | > 1e+06 | 0.021 | 0.000118 | 5.55e+06 | 0.033 | 0.000291 | 8.89e+06 |
